Publication PMC8799719 (2022)
Read-outs that look alike come from different tables or passages of the source.

Legend:
[1] = molecular target: T1, triple-helical peptide (THP) [(POG)10]3 (synthetic construct, O of each POG triplet, as printed in (POG)10); experiment: ITC
[2] = molecular target: T1, triple-helical peptide (THP) [(POG)10]3; experiment: ITC; remark: listed apart in the source

B1: recombinant activator domain of VhaC (domain or fragment)
chain: SAEQAANVCDVEAFTSNSSNDVLNAIKTQGASCVNALFSAESRIQEAAFESGHMYNIAKHTTDLAKAYAGGGSDELEALFLYLRAGYYAEFYNSKVSFLSWVTPAVKEAVDAFVNNANFYENSDPHGKVLSEVIITMDSAGLQHAYLPQVTQWLTRWDSQYAQNWYMRNAVNGVFTILFGGQWNEQFVQTIGNQTELAKALGDFALRSSAIGASDEFMAANAGRELGRLTKYSGSASSTVKSKLTEIFAQYEMYGRGDAIWLGAADTVSYYADCSDY
Kd [1]: 82.8 µM

B2: ColG-activator domain (domain or fragment)
chain: YDFEYLNGLSYTELTNLIKNIKWNQINGLFNYSTGSQKFFGDKNRVQAIINALQESGRTYTANDMKGIETFTEVLRAGFYLGYYNDGLSYLNDRNFQDKCIPAMIAIQKNPNFKLGTAVQDEVITSLGKLIGNASANAEVVNNCVPVLKQFRENLNQYAPDYVKGTAVNELIKGIEFDFSGAAYEKDVKTMPWYGKIDPFINELKALGLYGNITSATEWASDVGIYYLSKFGLYSTNRNDIVQSLEKAVDMYKYGKIAFVAMERITWDYD
Kd [2]: 3.28 µM
